Values quoted from earlier work in patent US20200069786A1, “COMPOSITION AND PROCESS FOR PREPARING VACCINE” (TREOS BIO ZRT., priority 2018, published 2020).
Read-outs that look alike come from different tables or passages of the source.

B1: MAGE-C2 (protein, UniProt Q9UBF1 1-373, looked up)
Melanoma-associated antigen C2: MPPVPGVPFRNVDNDSPTSVELEDWVDAQHPTDEEEEEASSASSTLYLVFSPSSFSTSSSLILGGPEEEEVPSGVIPNLTESIPSSPPQGPPQGPSQSPLSSCCSSFSWSSFSEESSSQKGEDTGTCQGLPDSESSFTYTLDEKVAELVEFLLLKYEAEEPVTEAEMLMIVIKYKDYFPVILKRAREFMELLFGLALIEVGPDHFCVFANTVGLTDEGSDDEGMPENSLLIIILSVIFIKGNCASEEVIWEVLNAVGVYAGREHFVYGEPRELLTKVWVQGHYLEYREVPHSSPPYYEFLWGPRAHSESIKKKVLEFLAKLNNTVPSSFPSWYKDALKDVEERVQATIDTADDATVMASESLSVMSSNVSFSE
B2: FMR1NB (protein, UniProt Q8N0W7 1-255, looked up)
FMR1 neighbor protein: MSSHRRKAKGRNRRSHRAMRVAHLELATYELAATESNPESSHPGYEAAMADRPQPGWRESLKMRVSKPFGMLMLSIWILLFVCYYLSYYLCSGSSYFVLANGHILPNSENAHGQSLEEDSALEALLNFFFPTTCNLRENQVAKPCNELQDLSESECLRHKCCFSSSGTTSFKCFAPFRDVPKQMMQMFGLGAISLILVCLPIYCRSLFWRSEPADDLQRQDNRVVTGLKKQRRKRKRKSEMLQKAARGREEHGDE
B3: SSX-4 (protein, UniProt O60224 1-188, looked up)
Protein SSX4: MNGDDAFARRPRDDAQISEKLRKAFDDIAKYFSKKEWEKMKSSEKIVYVYMKLNYEVMTKLGFKVTLPPFMRSKRAADFHGNDFGNDRNHRNQVERPQMTFGSLQRIFPKIMPKKPAEEENGLKEVPEASGPQNDGKQLCPPGNPSTLEKINKTSGPKRGKHAWTHRLRERKQLVVYEEISDPEEDDE
B4: TDRD1 (protein, UniProt Q9BXT4 1-1180, looked up)
Tudor domain-containing …: MSVKSPFNVMSRNNLEAPPCKMTEPFNFEKNENKLPPHESLRSPGTLPNHPNFRLKSSENGNKKNNFLLCEQTKQYLASQEDNSVSSNPNGINGEVVGSKGDRKKLPAGNSVSPPSAESNSPPKEVNIKPGNNVRPAKSKKLNKLVENSLSISNPGLFTSLGPPLRSTTCHRCGLFGSLRCSQCKQTYYCSTACQRRDWSAHSIVCRPVQPNFHKLENKSSIETKDVEVNNKSDCPLGVTKEIAIWAERIMFSDLRSLQLKKTMEIKGTVTEFKHPGDFYVQLYSSEVLEYMNQLSASLKETYANVHEKDYIPVKGEVCIAKYTVDQTWNRAIIQNVDVQQKKAHVLYIDYGNEEIIPLNRIYHLNRNIDLFPPCAIKCFVANVIPAEGNWSSDCIKATKPLLMEQYCSIKIVDILEEEVVTFAVEVELPNSGKLLDHVLIEMGYGLKPSGQDSKKENADQSDPEDVGKMTTENNIVVDKSDLIPKVLTLNVGDEFCGVVAHIQTPEDFFCQQLQSGRKLAELQASLSKYCDQLPPRSDFYPAIGDICCAQFSEDDQWYRASVLAYASEESVLVGYVDYGNFEILSLMRLCPIIPKLLELPMQAIKCVLAGVKPSLGIWTPEAICLMKKLVQNKIITVKVVDKLENSSLVELIDKSETPHVSVSKVLLDAGFAVGEQSMVTDKPSDVKETSVPLGVEGKVNPLEWTWVELGVDQTVDVVVCVIYSPGEFYCHVLKEDALKKLNDLNKSLAEHCQQKLPNGFKAEIGQPCCAFFAGDGSWYRALVKEILPNGHVKVHFVDYGNIEEVTADELRMISSTFLNLPFQGIRCQLADIQSRNKHWSEEAITRFQMCVAGIKLQARVVEVTENGIGVELTDLSTCYPRIISDVLIDEHLVLKSASPHKDLPNDRLVNKHELQVHVQGLQATSSAEQWKTIELPVDKTIQANVLEIISPNLFYALPKGMPENQEKLCMLTAELLEYCNAPKSRPPYRPRIGDACCAKYTSDDFWYRAVVLGTSDTDVEVLYADYGNIETLPLCRVQPITSSHLALPFQIIRCSLEGLMELNGSSSQLIIMLLKNFMLNQNVMLSVKGITKNVHTVSVEKCSENGTVDVADKLVTFGLAKNITPQRQSALNTEKMYRMNCCCTELQKQVEKHEHILLFLLNNSTNQNKFIEMKKLLKS
B5: TAF7L (protein, UniProt Q5H9L4 1-462, looked up)
Transcription initiation …: MECPEGQLPISSENDSTPTVSTSEVTSQQEPQILVDRGSETTYESSADIAGDEGTQIPADEDTQTDADSSAQAAAQAPENFQEGKDMSESQDEVPDEVENQFILRLPLEHACTVRNLARSQSVKMKDKLKIDLLPDGRHAVVEVEDVPLAAKLVDLPCVIESLRTLDKKTFYKTADISQMLVCTADGDIHLSPEEPAASTDPNIVRKKERGREEKCVWKHGITPPLKNVRKKRFRKTQKKVPDVKEMEKSSFTEYIESPDVENEVKRLLRSDAEAVSTRWEVIAEDGTKEIESQGSIPGFLISSGMSSHKQGHTSSEYDMLREMFSDSRSNNDDDEDEDDEDEDEDEDEDEDEDKEEEEEDCSEEYLERQLQAEFIESGQYRANEGTSSIVMEIQKQIEKKEKKLHKIQNKAQRQKDLIMKVENLTLKNHFQSVLEQLELQEKQKNEKLISLQEQLQRFLKK
B6: SSX-2 (protein, UniProt Q16385 1-188, looked up)
Protein SSX2: MNGDDAFARRPTVGAQIPEKIQKAFDDIAKYFSKEEWEKMKASEKIFYVYMKRKYEAMTKLGFKATLPPFMCNKRAEDFQGNDLDNDPNRGNQVERPQMTFGRLQGISPKIMPKKPAEEGNDSEEVPEASGPQNDGKELCPPGKPTTSEKIHERSGPKRGEHAWTHRLRERKQLVIYEEISDPEEDDE
B7: SCP-1 (protein, UniProt Q15431 1-976, looked up)
Synaptonemal complex protein 1: MEKQKPFALFVPPRSSSSQVSAVKPQTLGGDSTFFKSFNKCTEDDFEFPFAKTNLSKNGENIDSDPALQKVNFLPVLEQVGNSDCHYQEGLKDSDLENSEGLSRVYSKLYKEAEKIKKWKVSTEAELRQKESKLQENRKIIEAQRKAIQELQFGNEKVSLKLEEGIQENKDLIKENNATRHLCNLLKETCARSAEKTKKYEYEREETRQVYMDLNNNIEKMITAFEELRVQAENSRLEMHFKLKEDYEKIQHLEQEYKKEINDKEKQVSLLLIQITEKENKMKDLTFLLEESRDKVNQLEEKTKLQSENLKQSIEKQHHLTKELEDIKVSLQRSVSTQKALEEDLQIATKTICQLTEEKETQMEESNKARAAHSFVVTEFETTVCSLEELLRTEQQRLEKNEDQLKILTMELQKKSSELEEMTKLTNNKEVELEELKKVLGEKETLLYENKQFEKIAEELKGTEQELIGLLQAREKEVHDLEIQLTAITTSEQYYSKEVKDLKTELENEKLKNTELTSHCNKLSLENKELTQETSDMTLELKNQQEDINNNKKQEERMLKQIENLQETETQLRNELEYVREELKQKRDEVKCKLDKSEENCNNLRKQVENKNKYIEELQQENKALKKKGTAESKQLNVYEIKVNKLELELESAKQKFGEITDTYQKEIEDKKISEENLLEEVEKAKVIADEAVKLQKEIDKRCQHKIAEMVALMEKHKHQYDKIIEERDSELGLYKSKEQEQSSLRASLEIELSNLKAELLSVKKQLEIEREEKEKLKREAKENTATLKEKKDKKTQTFLLETPEIYWKLDSKAVPSQTVSRNFTSVDHGISKDKRDYLWTSAKNTLSTPLPKAYTVKTPTKPKLQQRENLNIPIEESKKKRKMAFEFDINSDSSETTDLLSMVSEEETLKTLYRNNNPPASHLCVKTPKKAPSSLTTPGSTLKFGAIRKMREDRWAVIAKMDRKKKLKEAEKLFV

Tested on: TSA
[1] = TSA expression rate in BLADDER cancer
[2] = TSA expression rate in Esophageal
[3] = TSA expression rate in GASTRIC cancer
[4] = TSA expression rate in HEAD and NECK
[5] = TSA expression rate in LEUKEMIAS
[6] = TSA expression rate in LYMPHOMAS
[7] = TSA expression rate in MELANOMA
[8] = TSA expression rate in PEDIATRIC
[9] = TSA expression rate in PROSTATE cancer
[10] = TSA expression rate in Cervical cancer
[11] = TSA expression rate in LUNG cancer

Row | Molecule | TSA Expression Rate (ER) (BRAIN) | TSA Expression Rate (ER) (BREAST) | TSA Expression Rate (ER) (HCC) | TSA Expression Rate (ER) (LUNG) | TSA Expression Rate (ER) (THYROID) | Expression Rate (ER) % [1] | Expression Rate (ER) % (TSA expression rate in CRC) | Expression Rate (ER) % [2] | Expression Rate (ER) % [3] | Expression Rate (ER) % [4] | Expression Rate (ER) % [5] | Expression Rate (ER) % [6] | Expression Rate (ER) % [7] | Expression Rate (ER) % [8] | Expression Rate (ER) % [9] | Expression Rate (ER) % (TSA expression rate in Kidney) | TSA Expression Rate (ER) (OVARIAN) | TSA Expression Rate (ER) (PANCREATIC) | Expression Rate (ER) % [10] | Expression Rate (ER) % [11]
1 | B1 | 34% | 19% | 37% | 27% | 0% | 19% | 4% | 11% | 10% | 29% | 37% | 0% | 45% | 40% | 6% | – | – | – | – | –
2 | B2 | – | 55% | – | 28% | – | – | – | 8% | – | – | – | – | – | – | 0% | 0% | – | – | – | –
3 | B3 | 4% | 27% | 48% | – | 0% | 11% | – | 7% | 23% | 29% | 30% | 16% | 21% | 67% | – | 0% | 13% | 21% | 20% | 13%
4 | B4 | – | 38% | – | – | 0% | 29% | 0% | 10% | – | 22% | – | – | 0% | – | 47% | 0% | – | – | – | 5%
5 | B5 | – | 0% | – | – | 0% | 10% | 0% | 0% | – | 10% | – | – | 21% | – | 0% | 0% | – | – | – | 9%
6 | B6 | 4% | 7% | 46% | – | 8% | 13% | 5% | 0% | 3% | 17% | 12% | 16% | 35% | 44% | 28% | 2% | 7% | 4% | 4% | 10%
7 | B7 | 14% | 37% | 25% | – | 0% | 2% | 6% | 2% | 14% | 12% | 11% | 39% | 16% | – | – | 8% | 15% | 31% | – | 1%
